Laboratory results published in patent US9937235B2, “Lipidated peptides as anti-obesity agents” (USTAV ORGANICKE CHEMIE A BIOCHEMIE AKADEMIE VED CR, V.V.I, priority 2012, dated 2018).
Where a SMILES comes first, the peptide text is derived from it. Where no end group is shown, it is not given here. [ ]: non-standard residue; d: D form. The star is where a group is joined. Palmitoyl = CCCCCCCCCCCCCCCC(=O)*; Myristoyl = CCCCCCCCCCCCCC(=O)*; Nle = CCCC[C@H](N)C(=O)O

T1: rat PrRP receptor in RC-4B/C cells (rat, UniProt Q64121 1-370)
T1 construct: whole, on cells; also called the rat receptor; GPR10
T1 sequence (looked up): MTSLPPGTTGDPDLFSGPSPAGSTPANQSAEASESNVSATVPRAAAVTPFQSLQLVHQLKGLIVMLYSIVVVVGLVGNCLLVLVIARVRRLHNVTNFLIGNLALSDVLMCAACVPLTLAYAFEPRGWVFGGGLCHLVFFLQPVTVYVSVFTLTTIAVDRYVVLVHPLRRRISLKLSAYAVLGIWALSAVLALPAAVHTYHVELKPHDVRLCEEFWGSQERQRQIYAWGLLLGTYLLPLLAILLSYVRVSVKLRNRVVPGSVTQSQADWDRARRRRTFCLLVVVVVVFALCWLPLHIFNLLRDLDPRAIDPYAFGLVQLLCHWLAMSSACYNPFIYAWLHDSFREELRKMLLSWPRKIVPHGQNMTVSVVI


Legend:
fasted C57BL/6 mice = experiment: Food intake in fasted mice after SC administration; assay type: in vivo, mouse; conditions: fasted C57BL/6 mice, 5 mg/kg SC, 45 min
Experimental: Male C57BL/6 mice (An Lab, Prague 4) were bred in the accredited animal facility in the Institute of Organic Chemistry and Biochemistry, Czech Academy of Sciences, Prague, at the Institute of Molecular Genetics, Prague 4, at the temperature of 22±2° C. with access to food and water ad libitum. The day/night cycle was 12/12 hours (light turned on at 6:00 am). Animals were treated according to the Animal Protection Act (Act No. 246/1992). The males were fed standard chow diet St-1 (Mlýn Kocanda, Praha, Czech Republic) which contained 66% saccharides, 25% proteins and 9% lipids with a caloric value of 3.4 kcal/g.
The food was withdrawn 17 hours prior to injection of lipidated peptide and free access to water was maintained. The administration of saline, PrRP or lipidated analogs was performed either by SC injection at doses of 1-10 mg/kg (volume 0.2 ml/mouse), or by ICV using infusion pump (cannulae were inserted into the third brain ventricle 4 days before the experiment following the procedure of Maixnerová et al. (Maixnerová et al., 2011)). The single dose of peptide was 4 nmol/mouse (5 μl/mouse).
Fifteen minutes after the lipidated peptide administration, the mice were given pre-weighed food. The food was then weighed every 30 minutes for 5-10 hours. The administration of every dose was performed at least twice and one group of mice consisted of at least 6 mice. The results were presented as % of food intake as compared with the control group injected with saline.
Statistical evaluation was performed using program Graph-Pad Prism Software (San Diego, Calif., USA), and the one-way ANOVA with a subsequent Dunnettovým post-hoc test. The difference in food intake between mice injected with saline and mice injected with the examined peptide were considered statistically significant at P<0.05.

[1] = target: T1, rat PrRP receptor in RC-4B/C cells; experiment: competition with 125I-rat PrRP31 on RC-4B/C cells
Experimental: The rat pituitary cell line RC-4B/C (ATCC, Manassas, USA) was grown on 24-well plates which had their bottom coated with polyethyleneimine. The cells were grown to the optimal density of 300-450 thousand per well.
Plates were incubated for 60 minutes at room temperature. After incubation, the cells were solubilized in 0.1 mol/l solution of NaOH and the radioactivity bound to the cells was counted using a γ-counter. The experiments were performed in duplicate and repeated at least three times.
For evaluation of competitive binding experiments, the program Graph Pad Prism Software (San Diego, Calif., USA) was used. A method of nonlinear regression assuming one-site binding was used.

Molecule | Food intake in mice (5 mg/kg SC) % saline-treated group (45 min) (fasted C57BL/6 mice) [%] | Ki [1] [µM]
CCCCCCCCCCCCCCCC(=O)N[C@@H](CO)C(=O)N[C@@H](CCCNC(=N)N)C(=O)N[C@H](C(=O)N[C@@H](Cc1c[nH]cn1)C(=O)N[C@@H](CCCNC(=N)N)C(=O)N[C@@H](Cc1c[nH]cn1)C(=O)N[C@@H](CO)C(=O)N[C@@H](CCSC)C(=O)N[C@@H](CCC(=O)O)C(=O)N[C@H](C(=O)N[C@@H](CCCNC(=N)N)C(=O)N[C@H](C(=O)N1CCC[C@H]1C(=O)N[C@@H](CC(=O)O)C(=O)N[C@H](C(=O)N[C@@H](CC(N)=O)C(=O)N1CCC[C@H]1C(=O)N[C@@H](C)C(=O)N[C@@H](Cc1c[nH]c2ccccc12)C(=O)N[C@@H](Cc1ccc(O)cc1)C(=O)N[C@@H](C)C(=O)N[C@@H](CO)C(=O)N[C@@H](CCCNC(=N)N)C(=O)NCC(=O)N[C@H](C(=O)N[C@@H](CCCNC(=N)N)C(=O)N1CCC[C@H]1C(=O)N[C@H](C(=O)NCC(=O)N[C@@H](CCCNC(=N)N)C(=O)N[C@@H](Cc1ccccc1)C(N)=O)C(C)C)[C@@H](C)CC)[C@@H](C)CC)[C@@H](C)O)[C@@H](C)CC)[C@@H](C)O [Analog 57] | 11 | 
CCCCCCCCCCCCCC(=O)N[C@@H](CO)C(=O)N[C@@H](CCCNC(=N)N)C(=O)N[C@@H](C)C(=O)N[C@@H](Cc1c[nH]cn1)C(=O)N[C@@H](CCC(N)=O)C(=O)N[C@@H](Cc1c[nH]cn1)C(=O)N[C@@H](CO)C(=O)N[C@@H](CCSC)C(=O)N[C@@H](CCC(=O)O)C(=O)N[C@H](C(=O)N[C@@H](CCCNC(=N)N)C(=O)N[C@H](C(=O)N1CCC[C@H]1C(=O)N[C@@H](CC(=O)O)C(=O)N[C@H](C(=O)N[C@@H](CC(N)=O)C(=O)N1CCC[C@H]1C(=O)N[C@@H](C)C(=O)N[C@@H](Cc1c[nH]c2ccccc12)C(=O)N[C@@H](Cc1ccc(O)cc1)C(=O)N[C@H](C(=O)NCC(=O)N[C@@H](CCCNC(=N)N)C(=O)NCC(=O)N[C@H](C(=O)N[C@@H](CCCNC(=N)N)C(=O)N1CCC[C@H]1C(=O)N[C@H](C(=O)NCC(=O)N[C@@H](CCCNC(=N)N)C(=O)N[C@@H](Cc1ccccc1)C(N)=O)C(C)C)[C@@H](C)CC)[C@@H](C)O)[C@@H](C)CC)[C@@H](C)O)[C@@H](C)O [Analog 60] (Myristoyl-SRAHQHSMETRTPDINPAWYTGRGIRPVGRF-NH2) | 20 | 
TPDINPAWYASRGIRPVGRF-NH2 [Analog 51] | 100 | 
Myristoyl-[code f][code r]GVPRIGRGTYWAPNIDPT-NH2 [analog no. 37] |  | 0.364
Palmitoyl-SRTHRHSMEIRTPDINPAWYASRGIRPVGRF-NH2 [analog no. 57] |  | 0.00028
SHQRPADTHWYPRG[Nle]FPTIGRITARNGEVSR (printed without a C-terminal amide) [analog no. 30] |  | 1320
Myristoyl-SRTHRHSMEIRTPDINPAWYASRGIRPVGRF-NH2 (SMILES CCCCCCCCCCCCCC(=O)N[C@@H](CO)C(=O)N[C@@H](CCCNC(=N)N)C(=O)N[C@H](C(=O)N[C@@H](Cc1c[nH]cn1)C(=O)N[C@@H](CCCNC(=N)N)C(=O)N[C@@H](Cc1c[nH]cn1)C(=O)N[C@@H](CO)C(=O)N[C@@H](CCSC)C(=O)N[C@@H](CCC(=O)O)C(=O)N[C@H](C(=O)N[C@@H](CCCNC(=N)N)C(=O)N[C@H](C(=O)N1CCC[C@H]1C(=O)N[C@@H](CC(=O)O)C(=O)N[C@H](C(=O)N[C@@H](CC(N)=O)C(=O)N1CCC[C@H]1C(=O)N[C@@H](C)C(=O)N[C@@H](Cc1c[nH]c2ccccc12)C(=O)N[C@@H](Cc1ccc(O)cc1)C(=O)N[C@@H](C)C(=O)N[C@@H](CO)C(=O)N[C@@H](CCCNC(=N)N)C(=O)NCC(=O)N[C@H](C(=O)N[C@@H](CCCNC(=N)N)C(=O)N1CCC[C@H]1C(=O)N[C@H](C(=O)NCC(=O)N[C@@H](CCCNC(=N)N)C(=O)N[C@@H](Cc1ccccc1)C(N)=O)C(C)C)[C@@H](C)CC)[C@@H](C)CC)[C@@H](C)O)[C@@H](C)CC)[C@@H](C)O) [analog no. 56] |  | 0.00095
Myristoyl-SRAHQHSMETRTPDINPAWYTGRGIRPVGRF-NH2 (SMILES CCCCCCCCCCCCCC(=O)N[C@@H](CO)C(=O)N[C@@H](CCCNC(=N)N)C(=O)N[C@@H](C)C(=O)N[C@@H](Cc1c[nH]cn1)C(=O)N[C@@H](CCC(N)=O)C(=O)N[C@@H](Cc1c[nH]cn1)C(=O)N[C@@H](CO)C(=O)N[C@@H](CCSC)C(=O)N[C@@H](CCC(=O)O)C(=O)N[C@H](C(=O)N[C@@H](CCCNC(=N)N)C(=O)N[C@H](C(=O)N1CCC[C@H]1C(=O)N[C@@H](CC(=O)O)C(=O)N[C@H](C(=O)N[C@@H](CC(N)=O)C(=O)N1CCC[C@H]1C(=O)N[C@@H](C)C(=O)N[C@@H](Cc1c[nH]c2ccccc12)C(=O)N[C@@H](Cc1ccc(O)cc1)C(=O)N[C@H](C(=O)NCC(=O)N[C@@H](CCCNC(=N)N)C(=O)NCC(=O)N[C@H](C(=O)N[C@@H](CCCNC(=N)N)C(=O)N1CCC[C@H]1C(=O)N[C@H](C(=O)NCC(=O)N[C@@H](CCCNC(=N)N)C(=O)N[C@@H](Cc1ccccc1)C(N)=O)C(C)C)[C@@H](C)CC)[C@@H](C)O)[C@@H](C)CC)[C@@H](C)O)[C@@H](C)O) [analog no. 60] |  | 0.00075
Palmitoyl-SRAHQHSMETRTPDINPAWYTGRGIRPVGRF-NH2 (SMILES CCCCCCCCCCCCCCCC(=O)N[C@@H](CO)C(=O)N[C@@H](CCCNC(=N)N)C(=O)N[C@@H](C)C(=O)N[C@@H](Cc1c[nH]cn1)C(=O)N[C@@H](CCC(N)=O)C(=O)N[C@@H](Cc1c[nH]cn1)C(=O)N[C@@H](CO)C(=O)N[C@@H](CCSC)C(=O)N[C@@H](CCC(=O)O)C(=O)N[C@H](C(=O)N[C@@H](CCCNC(=N)N)C(=O)N[C@H](C(=O)N1CCC[C@H]1C(=O)N[C@@H](CC(=O)O)C(=O)N[C@H](C(=O)N[C@@H](CC(N)=O)C(=O)N1CCC[C@H]1C(=O)N[C@@H](C)C(=O)N[C@@H](Cc1c[nH]c2ccccc12)C(=O)N[C@@H](Cc1ccc(O)cc1)C(=O)N[C@H](C(=O)NCC(=O)N[C@@H](CCCNC(=N)N)C(=O)NCC(=O)N[C@H](C(=O)N[C@@H](CCCNC(=N)N)C(=O)N1CCC[C@H]1C(=O)N[C@H](C(=O)NCC(=O)N[C@@H](CCCNC(=N)N)C(=O)N[C@@H](Cc1ccccc1)C(N)=O)C(C)C)[C@@H](C)CC)[C@@H](C)O)[C@@H](C)CC)[C@@H](C)O)[C@@H](C)O) [analog no. 61] |  | 0.00041
TPDINPAWYASRGIRPVGRF-NH2 [analog no. 51] |  | 0.00238
